Data from patent US20250340613A1 (JOINT STOCK COMPANY BIOCAD, published 2025).

T1: hIL4R-His, Interleukin-4 receptor subunit alpha (Homo sapiens) aa 27-227 (Homo sapiens, UniProt P24394 27-227)
T1 construct: range 27-227; not shown: His tag as the name implies
T1 sequence (looked up): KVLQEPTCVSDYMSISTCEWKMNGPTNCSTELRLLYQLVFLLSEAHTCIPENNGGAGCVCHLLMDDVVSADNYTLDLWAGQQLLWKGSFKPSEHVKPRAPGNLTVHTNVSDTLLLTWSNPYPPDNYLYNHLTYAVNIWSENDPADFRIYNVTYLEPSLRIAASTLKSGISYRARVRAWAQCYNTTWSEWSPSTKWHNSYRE

T2: hCD38-Avi, ADP-ribosyl cyclase/cyclic ADP-ribose hydrolase 1 (Homo sapiens) aa 43-300 (Homo sapiens, UniProt P28907 43-300)
T2 construct: range 43-300; not shown: Avi tag as the name implies
T2 sequence (looked up): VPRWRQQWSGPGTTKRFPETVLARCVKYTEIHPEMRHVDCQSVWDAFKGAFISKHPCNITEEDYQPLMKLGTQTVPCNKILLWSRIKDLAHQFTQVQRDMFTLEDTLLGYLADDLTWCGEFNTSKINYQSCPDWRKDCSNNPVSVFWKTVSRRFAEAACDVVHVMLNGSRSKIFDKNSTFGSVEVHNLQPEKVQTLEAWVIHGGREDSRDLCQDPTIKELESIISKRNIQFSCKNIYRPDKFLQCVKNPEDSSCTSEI

T3: C-Avi-His-TEVs-HSA_hBCMA, Tumor necrosis factor receptor superfamily member 17 (Homo sapiens) aa 1-54 (Homo sapiens, UniProt Q02223 1-54)
T3 construct: range 1-54; not shown: Avi, His, TEV site and HSA parts as the name implies
T3 sequence (looked up): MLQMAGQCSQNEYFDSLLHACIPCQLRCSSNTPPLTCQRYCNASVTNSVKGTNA

B1: 02-004, bivalent bispecific chimeric antibody that specifically binds to PD1 and CD20 (bispecific antibody, human IgG1, kappa, L234A L235A)
heavy 1: QVQLVQSGGGLVQPGGSLRLSCAASGFTFSSYWMYWVRQVPGKGLEWVSAIDTGGGRTYYADSVKGRFAISRVNAKNTMYLQMNSLRAEDTAVYYCARDEGGGTGWGVLKDWPYGLDAWGQGTLVTVSSASTKGPSVFPLAPSSKSTSGGTAALGCLVKDYFPEPVTVSWNSGALTSGVHTFPAVLQSSGLYSLSSVVTVPSSSLGTQTYICNVNHKPSNTKVDKRVEPKSCDKTHTCPPCPAPEAAGGPSVFLFPPKPKDTLYITREPEVTCVVVDVSHEDPEVKFNWYVDGVEVHNAKTKPREEQYNSTYRVVSVLTVLHQDWLNGKEYKCKVSNKALPAPIEKTISKAKGQPREPQVCTLPPSRDELTKNQVSLSCAVKGFYPSDIAVEWESNGQPENNYKTTPPVLDSDGSFFLVSKLTVDKSRWQQGNVFSCSVMHEALHNHYTQKSLSLSPGK
light 1: QPVLTQPLSVSVALGQTARITCGGNNIGSKNVHWYQQKPGQAPVLVIYRDSNRPSGIPERFSGSNSGNTATLTISRAQAGDEADYYCQVWDSSTAVFGTGTKLTVLQRTVAAPSVFIFPPSDEQLKSGTASVVCLLNNFYPREAKVQWKVDNALQSGNSQESVTEQDSKDSTYSLSSTLTLSKADYEKHKVYACEVTHQGLSSPVTKSFNRGEC
heavy 2: not shown
light 2: DIQMTQSPSSLSASVGDRVTITCRASSSVSYMHWYQQKPGKAPKPLIYAPSNLASGVPSRFSGSGSGTDFTLTISSLQPEDFATYYCQQWSFNPPTFGQGTKVEIKQRQVKPEAWLSSGPSPGPGRLQLVCHVSGFYPKPVWVMWMRGEQEQQGTQLGDILPNANWTWYLRATLDVADGEAAGLSCRVKHSSLEGQDIILYWRGSC
notes: Produced in CHO cells
B2: 02-005, bivalent bispecific chimeric antibody that specifically binds to PD1 and CD20 (bispecific antibody, human IgG1, kappa, L234A L235A)
heavy 1: EVQLVESGGGLVQPGGSLRLSCAASGYTFTSYNMHWVRQAPGKGLEWVGAIYPGNGDTSYNQKFKGRFTISVDKSKNTLYLQMNSLRAEDTAVYYCARVVYYSNSYWYFDVWGQGTLVTVSSASTKGPSVFPLAPSSKSTSGGTAALGCLVKDYFPEPVTVSWNSGALTSGVHTFPAVLQSSGLYSLSSVVTVPSSSLGTQTYICNVNHKPSNTKVDKRVEPKSCDKTHTCPPCPAPEAAGGPSVFLFPPKPKDTLYITREPEVTCVVVDVSHEDPEVKFNWYVDGVEVHNAKTKPREEQYNSTYRVVSVLTVLHQDWLNGKEYKCKVSNKALPAPIEKTISKAKGQPREPQVCTLPPSRDELTKNQVSLSCAVKGFYPSDIAVEWESNGQPENNYKTTPPVLDSDGSFFLVSKLTVDKSRWQQGNVFSCSVMHEALHNHYTQKSLSLSPGK
light 1: DIQMTQSPSSLSASVGDRVTITCRASSSVSYMHWYQQKPGKAPKPLIYAPSNLASGVPSRFSGSGSGTDFTLTISSLQPEDFATYYCQQWSFNPPTFGQGTKVEIKRTVAAPSVFIFPPSDEQLKSGTASVVCLLNNFYPREAKVQWKVDNALQSGNSQESVTEQDSKDSTYSLSSTLTLSKADYEKHKVYACEVTHQGLSSPVTKSFNRGEC
heavy 2: not shown
light 2: QPVLTQPLSVSVALGQTARITCGGNNIGSKNVHWYQQKPGQAPVLVIYRDSNRPSGIPERFSGSNSGNTATLTISRAQAGDEADYYCQVWDSSTAVFGTGTKLTVLQQRQVKPEAWLSSGPSPGPGRLQLVCHVSGFYPKPVWVMWMRGEQEQQGTQLGDILPNANWTWYLRATLDVADGEAAGLSCRVKHSSLEGQDIILYWRGSC
notes: Produced in CHO cells
B3: 02-006, bivalent bispecific chimeric antibody that specifically binds to PD1 and CSF1R (bispecific antibody, human IgG1, kappa, L234A L235A)
heavy 1: B1 heavy 1
light 1: B1 light 1
heavy 2: not shown
light 2: QAGLTQPPSVSVAPGQTARITCGGNNIGSKSVHWYQQKPGQAPVLVVYGDSDRPSGIPERFSGSNSGNTATLTISRVEAGDEADYYCQVWDISSDHVVFGGGTQLTVLQRQVKPEAWLSSGPSPGPGRLQLVCHVSGFYPKPVWVMWMRGEQEQQGTQLGDILPNANWTWYLRATLDVADGEAAGLSCRVKHSSLEGQDIILYWRGSC
notes: Produced in CHO cells
B4: 02-007, bivalent bispecific chimeric antibody that specifically binds to PD1 and CSF1R (bispecific antibody, human IgG1, kappa, L234A L235A)
heavy 1: QVQLVESGGGLVRPGGSLRLSCAASEFTFDDYAMSWVRQAPGKGLEWVSAISWNGGSTNYADSVKGRFTISRDNAKNSLYLQMNSLRAEDTALYYCASTVEVAHRRLYKYLEVWGQGTLVTVSSASTKGPSVFPLAPSSKSTSGGTAALGCLVKDYFPEPVTVSWNSGALTSGVHTFPAVLQSSGLYSLSSVVTVPSSSLGTQTYICNVNHKPSNTKVDKRVEPKSCDKTHTCPPCPAPEAAGGPSVFLFPPKPKDTLYITREPEVTCVVVDVSHEDPEVKFNWYVDGVEVHNAKTKPREEQYNSTYRVVSVLTVLHQDWLNGKEYKCKVSNKALPAPIEKTISKAKGQPREPQVCTLPPSRDELTKNQVSLSCAVKGFYPSDIAVEWESNGQPENNYKTTPPVLDSDGSFFLVSKLTVDKSRWQQGNVFSCSVMHEALHNHYTQKSLSLSPGK
light 1: QAGLTQPPSVSVAPGQTARITCGGNNIGSKSVHWYQQKPGQAPVLVVYGDSDRPSGIPERFSGSNSGNTATLTISRVEAGDEADYYCQVWDISSDHVVFGGGTQLTVLRTVAAPSVFIFPPSDEQLKSGTASVVCLLNNFYPREAKVQWKVDNALQSGNSQESVTEQDSKDSTYSLSSTLTLSKADYEKHKVYACEVTHQGLSSPVTKSFNRGEC
heavy 2: not shown
light 2: B2 light 2
notes: Produced in CHO cells
B5: 02-008, bivalent bispecific chimeric antibody that specifically binds to CD20 and CSF1R (bispecific antibody, human IgG1, kappa, L234A L235A)
heavy 1: B2 heavy 1
light 1: B2 light 1
heavy 2: not shown
light 2: B3 light 2
notes: Produced in CHO cells

Key:
Assay in all cases: BLI Octet RED 384; antibody on ProA sensor, antigen 30 ug/ml
[1] = target: T1, hIL4R-His, Interleukin-4 receptor …
[2] = target: T2, hCD38-Avi, ADP-ribosyl cyclase/cyclic …
[3] = target: T3, C-Avi-His-TEVs-HSA_hBCMA, Tumor …
[4] = target: T4, Her3-H6F, Receptor tyrosine-protein kinase erbB-3 (Homo sapiens) aa 21-643 (Homo sapiens, UniProt P21860 21-643)
T4 construct: not shown: His and FLAG tags implied by the name 'H6F'
T4 sequence (P21860 21-643 limits assumed): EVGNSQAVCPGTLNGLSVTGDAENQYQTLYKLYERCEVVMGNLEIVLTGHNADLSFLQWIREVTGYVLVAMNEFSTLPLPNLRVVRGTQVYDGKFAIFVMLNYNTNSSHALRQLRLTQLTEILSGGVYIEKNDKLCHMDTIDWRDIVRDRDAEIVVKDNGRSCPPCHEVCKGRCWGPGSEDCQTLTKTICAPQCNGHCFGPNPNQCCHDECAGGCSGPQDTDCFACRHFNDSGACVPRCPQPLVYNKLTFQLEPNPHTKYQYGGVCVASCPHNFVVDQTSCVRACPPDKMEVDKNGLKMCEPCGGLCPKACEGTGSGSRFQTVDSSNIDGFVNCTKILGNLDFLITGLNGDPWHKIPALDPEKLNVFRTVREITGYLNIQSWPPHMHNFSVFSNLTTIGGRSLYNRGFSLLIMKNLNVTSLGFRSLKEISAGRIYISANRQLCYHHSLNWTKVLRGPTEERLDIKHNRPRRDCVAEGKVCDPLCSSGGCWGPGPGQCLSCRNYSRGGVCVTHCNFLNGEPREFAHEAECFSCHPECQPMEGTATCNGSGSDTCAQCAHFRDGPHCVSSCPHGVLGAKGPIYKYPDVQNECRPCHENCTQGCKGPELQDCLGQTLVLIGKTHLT

[5] = target: T5, extracellular domain of the human CSF1R protein (hCSF1R_His) (Homo sapiens, UniProt P07333 20-512)
T5 construct: range 20-512; Molecular weight 57.4 kDa; made in CHO cells; also called hCSF1_His; not shown: C-terminal His and FLAG tags
T5 sequence (P07333 20-512 limits assumed): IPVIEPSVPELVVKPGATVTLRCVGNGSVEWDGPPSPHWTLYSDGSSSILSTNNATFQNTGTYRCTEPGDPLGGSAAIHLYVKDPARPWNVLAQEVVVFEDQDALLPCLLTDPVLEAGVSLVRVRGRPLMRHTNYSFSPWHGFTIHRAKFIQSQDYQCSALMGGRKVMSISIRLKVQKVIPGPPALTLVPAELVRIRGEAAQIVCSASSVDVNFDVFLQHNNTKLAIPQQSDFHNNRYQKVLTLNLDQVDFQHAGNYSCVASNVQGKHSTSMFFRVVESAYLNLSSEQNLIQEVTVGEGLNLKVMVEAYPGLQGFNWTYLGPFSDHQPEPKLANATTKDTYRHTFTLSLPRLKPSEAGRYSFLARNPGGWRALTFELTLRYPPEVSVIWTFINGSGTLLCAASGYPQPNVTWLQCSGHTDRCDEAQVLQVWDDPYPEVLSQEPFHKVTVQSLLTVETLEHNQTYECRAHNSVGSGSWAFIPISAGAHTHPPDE

Binder	binding result [1]	binding result [2]	binding result [3]	binding result [4]	binding result [5]
B1	no binding (tested: 1154 nM)	no binding (tested: 854.7 nM)	no binding (tested: 391.2 nM)	no binding (tested: 420.8 nM)	no binding (tested: 522.5 nM)
B2	–	no binding (tested: 854.7 nM)	no binding (tested: 391.2 nM)	–	no binding (tested: 522.5 nM)
B3	–	no binding (tested: 854.7 nM)	no binding (tested: 391.2 nM)	–	–
B4	no binding (tested: 1154 nM)	no binding (tested: 854.7 nM)	no binding (tested: 391.2 nM)	–	–
B5	–	no binding (tested: 854.7 nM)	–	–	–
